In publication PMC12802937 (Nucleic Acids Research, 2026):
Changes are numbered by the printed parent chain.

Assays:
Details in all cases: both partners purified
Bre1-LR K379E = target: T1, Bre1-LR K379E (budding yeast, UniProt Q07457 227-700, K379E); assay: ITC; Lge1-CT (50–60 μM) injected into Bre1-LR (15 μM); 25°C, 20 mM TRIS (pH 7.5), 200 mM sodium chloride
T1 construct: source: E. coli BL21 Rosetta (DE3), purified (Ni-NTA, heparin, gel filtration)
T1 sequence (looked up): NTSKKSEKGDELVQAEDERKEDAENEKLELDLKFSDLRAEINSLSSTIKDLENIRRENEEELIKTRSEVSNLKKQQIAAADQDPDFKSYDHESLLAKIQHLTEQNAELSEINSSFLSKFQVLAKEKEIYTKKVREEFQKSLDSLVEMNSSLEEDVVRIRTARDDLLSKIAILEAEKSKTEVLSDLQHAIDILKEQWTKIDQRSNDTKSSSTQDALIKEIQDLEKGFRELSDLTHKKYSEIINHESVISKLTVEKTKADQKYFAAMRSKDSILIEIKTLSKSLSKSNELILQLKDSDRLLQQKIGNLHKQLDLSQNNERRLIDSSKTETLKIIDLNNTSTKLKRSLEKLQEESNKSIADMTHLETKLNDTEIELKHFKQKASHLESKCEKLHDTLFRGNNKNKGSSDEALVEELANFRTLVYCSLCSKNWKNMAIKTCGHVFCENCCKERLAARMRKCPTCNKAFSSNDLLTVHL

[1] = target: T2, Bre1-LR (Bre1 residues 227–700, LBD and RING domains), 6× histidine tag (budding yeast, UniProt Q07457 227-700); assay: as above
T2 construct: two Bre1 polypeptides form the dimeric coiled-coils of the LBD in the crystal structure; also called WT; source: E. coli BL21 Rosetta (DE3), purified (Ni-NTA, heparin, gel filtration)
T2 sequence (looked up): T1 sequence (looked up) with E153K

Bre1-LR K352E = target: T3, Bre1-LR K352E (budding yeast, UniProt Q07457 227-700, K352E); assay: as above
T3 construct: source: E. coli BL21 Rosetta (DE3), purified (Ni-NTA, heparin, gel filtration)
T3 sequence (looked up): T1 sequence (looked up) with K126E, E153K

Bre1-LR A489N = target: T4, Bre1-LR A489N (budding yeast, UniProt Q07457 227-700, A489N); assay: as above
T4 construct: source: E. coli BL21 Rosetta (DE3), purified (Ni-NTA, heparin, gel filtration)
T4 sequence (looked up): T1 sequence (looked up) with E153K, A263N

[2] = target: T2, Bre1-LR (Bre1 residues 227–700, LBD and …); assay: ITC; Lge1-CT (50–60 μM) injected into Bre1-LR (15 μM); 25°C, 20 mM TRIS (pH 7.5), 300 mM sodium chloride

- Kd (Bre1-LR K379E): 58.1 ± 19 nM
- dH (Bre1-LR K379E): -37.7 ± 1.6 kcal/mol
- stoichiometry N (Bre1-LR K379E): 0.428 ± 0.008
- Kd [1]: 24.5 ± 4.5 nM
- dH [1]: -50.5 ± 1 kcal/mol
- stoichiometry N [1]: 0.396 ± 0.003
- Kd (Bre1-LR K352E): 176 ± 45 nM
- dH (Bre1-LR K352E): -22.9 ± 1.3 kcal/mol
- stoichiometry N (Bre1-LR K352E): 0.432 ± 0.011
- Kd (Bre1-LR A489N): 154 ± 55 nM
- dH (Bre1-LR A489N): -52.1 ± 3.6 kcal/mol
- stoichiometry N (Bre1-LR A489N): 0.375 ± 0.012
- Kd [2]: 2.7 ± 1.7 nM
- dH [2]: -38.8 ± 0.6 kcal/mol
- stoichiometry N [2]: 0.318 ± 0.002
B1: Lge1-CT (Lge1 residues 261–332), intein-chitin binding domain (CBD) tag construct (domain or fragment, budding yeast, UniProt Q02796 261-332, looked up)
chain: KNVKKTNNTESECEKAREVFKESDSIDSALEELNLKINSNELELRLLNNQCDKHALNIQLTQEKLDSLLLMQ
notes: Lge1, budding yeast, residues 261-332; residues 268–331 resolved in the electron density; the intein-CBD tag is named on the protein in the pull-down; also called intein-CBD-fused Lge1-CT; intein-CBD-tagged Lge1-CT; source: E. coli BL21 Rosetta (DE3): cleared cell extract on chitin resin (pull-down); purified (chitin, heparin, gel filtration) for ITC and SPR; co-purified with Bre1-LR for the …
